Test results from PMC8464039 (Nucleic Acids Research, 2021).
Changes are numbered by the printed parent chain.

B1: dsDNASP (specific target, 54 bp) (dsDNA)
DNA 1: GGAAGCCATCCAGGTAGACGCGGACATCAAGCCCGCCGTGAAGGTGCAGCTGCT
DNA 2: AGCAGCTGCACCTTCACGGCGGGCTTGATGTCCGCGTCTACCTGGATGGCTTCC
B2: dsDNANS (non-specific, 54 bp) (dsDNA)
DNA 1: GAGCGACTACGACATGAGCGCGCAGCTAAGACCGCCCGTAGATGCGTCGAGCGT
DNA 2: ACGCTCGACGCATCTACGGGCGGTCTTAGCTGCGCGCTCATGTCGTAGTCGCTC
B3: dsDNANS unlabeled (dsDNA)
DNA 1: B2 DNA 1
DNA 2: B2 DNA 2
B4: Cas7f subunit of the Csy complex (natural protein, P. aeruginosa)
chain: MSKPILSTASVLAFERKLDPSDALMSAGAWAQRDASQEWPAVTVREKSVRGTISNRLKTKDRDPAKLDASIQSPNLQTVDVANLPSDADTLKVRFTLRVLGGAGTPSACNDAAYRDKLLQTVATYVNDQGFAELARRYAHNLANARFLWRNRVGAEAVEVRINHIRQGEVARAWRFDALAIGLRDFKADAELDALAELIASGLSGSGHVLLEVVAFARIGDGQEVFPSQELILDKGDKKGQKSKTLYSVRDAAAIHSQKIGNALRTIDTWYPDEDGLGPIAVEPYGSVTSQGKAYRQPKQKLDFYTLLDNWVLRDEAPAVEQQHYVIANLIRGGVFGEAEEK

Columns and labels:
CsyRE3 = biological target: T1, CsyRE3 (Pseudomonas aeruginosa, UniProt Q02ML9;Q02MM0;Q02MM1;Q02MM2 1-434;1-327;1-342;1-187, R207E;R219E;R258E); experiment: EMSA
T1 sequence 1: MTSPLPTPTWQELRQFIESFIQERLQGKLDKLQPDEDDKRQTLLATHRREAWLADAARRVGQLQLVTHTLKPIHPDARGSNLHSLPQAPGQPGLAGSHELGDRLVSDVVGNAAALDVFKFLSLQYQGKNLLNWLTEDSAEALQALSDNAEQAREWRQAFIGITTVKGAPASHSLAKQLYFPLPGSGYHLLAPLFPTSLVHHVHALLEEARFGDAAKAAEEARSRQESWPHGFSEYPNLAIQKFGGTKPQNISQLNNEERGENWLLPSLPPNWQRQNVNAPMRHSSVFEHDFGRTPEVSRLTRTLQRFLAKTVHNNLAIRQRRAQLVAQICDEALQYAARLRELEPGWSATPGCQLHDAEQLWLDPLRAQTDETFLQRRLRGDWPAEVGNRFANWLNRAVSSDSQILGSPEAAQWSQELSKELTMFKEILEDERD
T1 sequence 2: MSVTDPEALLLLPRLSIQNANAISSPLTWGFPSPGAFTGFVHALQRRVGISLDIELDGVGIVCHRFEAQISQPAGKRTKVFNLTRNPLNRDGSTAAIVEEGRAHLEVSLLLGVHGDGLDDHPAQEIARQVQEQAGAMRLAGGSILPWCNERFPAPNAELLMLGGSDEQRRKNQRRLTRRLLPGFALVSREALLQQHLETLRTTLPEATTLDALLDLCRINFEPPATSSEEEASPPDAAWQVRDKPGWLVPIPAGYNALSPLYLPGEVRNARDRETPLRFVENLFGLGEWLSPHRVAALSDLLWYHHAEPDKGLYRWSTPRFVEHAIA
T1 sequence 3: B4 chain
T1 sequence 4: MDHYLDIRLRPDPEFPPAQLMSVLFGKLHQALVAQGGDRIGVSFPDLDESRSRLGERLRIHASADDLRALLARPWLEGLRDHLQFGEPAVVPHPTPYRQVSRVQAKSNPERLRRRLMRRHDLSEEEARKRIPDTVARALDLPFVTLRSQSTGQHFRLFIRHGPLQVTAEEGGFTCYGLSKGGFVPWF

[1] = biological target: T2, Csy complex (crRNA-guided surveillance complex) (Pseudomonas aeruginosa, UniProt Q02ML9;Q02MM0;Q02MM1;Q02MM2 1-434;1-327;1-342;1-187); experiment: EMSA
T2 sequence 1: T1 sequence 1 with E207R, E219R, E258R
T2 sequence 2: T1 sequence 2
T2 sequence 3: B4 chain
T2 sequence 4: T1 sequence 4

[2] = biological target: T2, Csy complex (crRNA-guided surveillance …); experiment: competition
cryo-EM structure = biological target: the molecule itself; experiment: cryo-EM structure

Binder | binding result (CsyRE3) | binding result [1] | binding result [2] | stoichiometry N (cryo-EM structure)
B1 | no binding | binds |  | 
B2 | no binding | no binding |  | 
B3 |  |  | no binding | 
B4 |  |  |  | 6
